The text below walks through data of patent US20240108766A1 (Bayer, published 2024).

Sequences and labels used below:
T1: cynomolgus (Macaca fascicularis) LRRC15 extracellular domain with C-terminal His tag (cynomolgus monkey (Macaca fascicularis), UniProt Q8TF66 22-538 (human entry))
T1 construct: Recombinant, made in HEK293; the entry holds the extracellular domain and the His tag; SPR analyte; also called TPP-9046
T1 chain: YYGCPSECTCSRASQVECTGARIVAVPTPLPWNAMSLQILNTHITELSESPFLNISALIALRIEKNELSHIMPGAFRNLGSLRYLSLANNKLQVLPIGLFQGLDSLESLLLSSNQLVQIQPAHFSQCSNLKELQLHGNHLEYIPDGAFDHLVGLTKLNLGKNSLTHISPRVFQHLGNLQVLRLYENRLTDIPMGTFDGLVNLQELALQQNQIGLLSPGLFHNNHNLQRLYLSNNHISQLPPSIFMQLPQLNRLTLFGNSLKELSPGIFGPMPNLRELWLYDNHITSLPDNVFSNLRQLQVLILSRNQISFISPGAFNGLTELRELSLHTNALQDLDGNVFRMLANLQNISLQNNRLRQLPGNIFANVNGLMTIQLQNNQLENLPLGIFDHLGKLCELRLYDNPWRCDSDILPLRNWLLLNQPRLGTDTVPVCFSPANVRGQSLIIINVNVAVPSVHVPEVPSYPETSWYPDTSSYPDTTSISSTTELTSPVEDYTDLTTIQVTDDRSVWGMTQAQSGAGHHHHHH

T2: human LRRC15 extracellular domain with C-terminal His tag (human, UniProt Q8TF66 22-538)
T2 construct: Recombinant, made in HEK293; the entry holds the extracellular domain and the His tag; SPR analyte; also called TPP-1545; hLRRC15 CT-His
T2 sequence: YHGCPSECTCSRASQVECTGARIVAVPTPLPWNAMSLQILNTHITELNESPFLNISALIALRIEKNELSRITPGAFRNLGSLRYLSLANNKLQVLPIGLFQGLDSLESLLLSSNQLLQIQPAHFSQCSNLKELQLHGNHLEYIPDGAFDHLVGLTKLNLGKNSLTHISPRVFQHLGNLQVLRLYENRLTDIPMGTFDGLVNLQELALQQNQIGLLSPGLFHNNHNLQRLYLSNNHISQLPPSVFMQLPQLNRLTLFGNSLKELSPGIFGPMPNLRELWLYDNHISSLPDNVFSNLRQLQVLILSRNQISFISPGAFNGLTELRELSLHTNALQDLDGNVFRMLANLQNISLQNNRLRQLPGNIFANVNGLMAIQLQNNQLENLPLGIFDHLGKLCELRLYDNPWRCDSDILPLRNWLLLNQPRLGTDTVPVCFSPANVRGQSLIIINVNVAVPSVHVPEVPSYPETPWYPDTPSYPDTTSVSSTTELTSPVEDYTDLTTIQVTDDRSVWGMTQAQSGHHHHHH

B1: TPP-1633 (antibody, human IgG1, kappa, V domains shown)
VH: EVQLLESGGGLVQPGGSLRLSCAASGFTFSGYMMQWVRQAPGKGLEWVSGIYPSGGYTNYADSVKGRFTISRDNSKNTLYLQMNSLRAEDTATYYCAREKASDLSGSYSEALDYWGQGTLVTVSS
VL: DIQMTQSPDSLSASVGDRVTITCRASQDVGSWLAWYQQKPGKAPKLLIFAASSLESGIPSRFSGSGSGTDFTLTISSLQPEDFATYYCQQANGFPLTFGGGTKVEIKR
notes: also called 060E-M016-G14-hIgG1
B2: TPP-17073 (antibody, human IgG1, kappa, V domains shown)
VH: B1 VH with Q35S, G55A, N59L, T93V, S102A, S105F
VL: B1 VL with S53Y
notes: also called 438H-M113-N15-hIgG1
B3: TPP-14392 (antibody, human IgG1, kappa, V domains shown)
VH: B1 VH with Q35S, G55P, N59Y, T93V
VL: B1 VL with S53Y
notes: also called 13612-rec05-hIgG1Kappa
B4: TPP-17405 (antibody, human IgG1, kappa, V domains shown)
VH: EVQLVQSGAEVKKPGASVKVSCKASGYKFSSYWIEWVKQAPGQGLEWIGEILPGSDTTNYNEKFKDRATFTSDTSINTAYMELSRLRSDDTAVYYCARDRGNYRAWFQYWGQGTLVTVSS
VL: DIQMTQSPSSLSASVGDRVTITCRASQRISSYLNWYQQKPGGAPKFLIYYASSLQSGVPSRFSGSGSGTDYTLTISSLQPEDFATYYCDQGLELPWTFGGGTKVEIKR
notes: also called 438H-M345-F05-hIgG1Kappa
B5: TPP-17418 (antibody, human IgG1, kappa, V domains shown)
VH: B4 VH with T57W
VL: B4 VL with R28S, D89Q, L92F, E93S
notes: also called 438H-M308-H05_B-hIgG1Kappa
B6: TPP-17419 (antibody, human IgG1, kappa, V domains shown)
VH: B4 VH with T57W
VL: B4 VL with A25I, R28S, D89Q, E93R
notes: also called 438H-M307-H07-hIgG1Kappa
B7: TPP-17074 (antibody, human IgG1, kappa, V domains shown)
VH: B1 VH with Q35S, T58A, N59L, T93V, S102A, S105F
VL: B1 VL with S53Y
notes: also called 438H-M161-K22-hIgG1

Substitutions are numbered along the chain they refer to.

One test has as its target T1, cynomolgus (Macaca fascicularis) LRRC15 …. Briefly: SPR Biacore T200, 25°C, antibody captured, LRRC15 analyte. As to the method:
(§1) To assess the binding kinetics and affinity of anti-LRRC15 antibodies as well as their species cross-reactivity profile, binding assays were conducted using surface plasmon resonance (SPR). Binding assays were performed on a Biacore T200 instrument at 25° C. using assay buffer HBS EP+, 1 mg/ml BSA, 300 mM NaCl, 0.05% NaN3. Antibodies were captured via anti-human Fc IgGs covalently amine coupled to a CM5 sensor chip and human, mouse and cynomolgus LRRC15 were used as analytes in a concentration series from 1.56-200 nM in multi cycle kinetics mode. […] Obtained sensorgrams were fitted to a 1:1 Langmuir binding model to derive kinetic data.
As a reminder, the Kd is the constant that tells how readily two partners part at equilibrium. In turn, B1 gave a Kd of 190 nM.
Molecule B2 registered a Kd of 0.18 nM.
Take B3: binding was put at a Kd of 10 nM.
Same read-out and setting: to B4 belongs 0.78 nM; to B5, 0.99 nM; to B6, 2.5 nM.

In a further test the target is T2, human LRRC15 extracellular domain with …. The test is described as above. As for the experimental part: as §1
On to B1, for which the Kd worked out at 150 nM.
In the case of B2, the Kd was determined as 0.21 nM.
Same read-out and setting: to B7 belongs 0.19 nM; to B3, 5.9 nM.
Same read-out and setting: to B4 belongs 0.86 nM; to B5, 1.1 nM; to B6, 3.4 nM.

For another test the target is unchanged. Briefly: binding of the purified IgG, method not given.
B1 gave a Kd of roughly 200 nM.

The next test has the same target. The test is described as follows: SPR Biacore T200, antibody captured, LRRC15 analyte, 37°C. As for the experimental part: (§2) To assess if anti-LRRC-15 antibodies show a difference in binding at different temperatures, binding assays were conducted using surface plasmon resonance (SPR). Binding assays were performed on a Biacore T200 instrument at temperatures of 10° C., 20° C., 25° C. and 37° C. with assay buffer HBS EP+, 1 mg/ml BSA (bovine serum albumine), 300 mM NaCl, 0.05% NaN₃. Antibodies were captured via anti-human Fc IgGs covalently amine coupled to a CM5 sensor chip and human LRRC15 was used as an analyte in a concentration series from 1.56-200 nM in multi cycle kinetics mode. Pre-experiments were conducted to have an equal capture level at each temperature. Obtained sensorgrams were fitted to a 1:1 Langmuir binding model to derive kinetic data.
A general note: SPR reads the build-up and loss of mass on a sensor chip optically.
In turn, B7 gave a Kd of 1.9 nM.
On the same count and under the same terms, the same measure for B3: 91 nM.

For the next test the target is unchanged. Briefly: SPR thermodynamics (van't Hoff/Eyring), 10-37°C. As for the experimental part: as §2, with “Thermodynamics help to explain why an interaction is happening and what the driving forces for the interaction are. To” for “To”, “the thermodynamic parameters for anti-LRRC15” for “if anti-LRRC-15”, “antibodies” for “antibodies show a difference in binding at different temperatures,”, “BSA,” for “BSA (bovine serum albumine),”, “NaN3.” for “NaN₃.”, “data. Thermodynamic parameters were obtained using the integrated thermodynamics wizard in the Biacore T200 software. Van′t Hoff and Eyring plots were calculated and plotted and thermodynamic parameters were derived.” for “data.”
Turning to B7, the “-TΔS” value came out at 9.56 kcal/mol, the “ΔG^0” value was -12.9 kcal/mol and the “ΔH^0” value was -22.7 kcal/mol.
Turning to B3, the “-TΔS” value is 15.3 kcal/mol, the “ΔG^0” value is -11 kcal/mol and the “ΔH^0” value is -26.3 kcal/mol.

For the next test the target is unchanged. Briefly: calculated from SPR kd, 20°C. As for the experimental part:
as §2
On to B7, for which the “Complex Half Life” value is 3.16 h.
For the molecule B3, the “Complex Half Life” value is 1.48 h.

For a further test the target is unchanged. The test is described as follows: calculated from SPR kd, 25°C. As for the experimental part: as §2
Turning to B1, the “Complex Half Life” value is 0.00833 h.
The same measure, in the same setting: to B7 belongs 1.6 h; to B3, 0.567 h.

The target is the same in another test. The test is described as follows: SPR at 10-37°C (Example 3). As to the method:
as §2
For B1, the “Temperature dependent loss in binding affinity” value is greater than 9 fold.
The same measure, in the same setting: to B7 belongs 33.3 fold; to B3, 56.9 fold.

The target of another test is T1, cynomolgus (Macaca fascicularis) LRRC15 …. Briefly: SPR (Example 6), overview table, repeats Table 9; head prints [M^-1]. As to the method: as §1
On to B1, for which the Kd came to 190 nM.
Same read-out and setting: the same measure for B2: 0.18 nM.
B3 displayed a Kd of 10 nM.
The molecule B4 registered an equilibrium dissociation constant (Kd) of 0.78 nM.
The same measure, in the same setting: the same measure for B5: 0.99 nM; for B6: 2.5 nM.

For the next test, the target named is T2, human LRRC15 extracellular domain with …. Described as above. As for the experimental part: as §1
B1 displayed a Kd of 150 nM.
Still for that read-out and setting: the same measure for B2: 0.21 nM.
On the same count and under the same terms, to B7 belongs 0.19 nM; to B3, 5.9 nM.
On the same count and under the same terms, the same measure for B4: 0.86 nM.
Take B5: binding was characterised by a dissociation constant (Kd) of 1.1 nM.
On the same count and under the same terms, to B6 belongs 3.4 nM.

A further test has the same target. Briefly: SPR Biacore T200, antibody captured, LRRC15 analyte, 10°C. As for the experimental part:
as §2
B1 registered a dissociation constant (Kd) of 18 nM.
Same read-out and setting: to B7 belongs 0.057 nM.

The next test has the same target. Briefly: SPR Biacore T200, antibody captured, LRRC15 analyte, 25°C. As to the method: as §2
Regarding B1, the Kd worked out at 160 nM.
Molecule B7 yielded a Kd of 0.22 nM.
In turn, B3 registered a Kd of 6.8 nM.

Another test shares this target. Briefly: SPR Biacore T200, antibody captured, LRRC15 analyte, 20°C. As for the experimental part: as §2
With B1, binding was put at a Kd of 80 nM.
Still for that read-out and setting: the same measure for B7: 0.14 nM; for B3: 2.9 nM.

Another test has the same target. Briefly: calculated from SPR kd, 37°C. As for the experimental part: as §2
As for B3, the “Complex Half Life” value is 2.3 min.

The next test shares this target. Briefly: calculated from SPR kd, 10°C. As for the experimental part:
as §2
For B1, the “Complex Half Life” value is 0.138 h.
Same read-out and setting: the same measure for B7: 10.7 h; for B3: 3.21 h.
